Measured values from US20170189504A1.

B1: SEQ ID NO: 203 peptide … (peptide)
peptide: FYSRLLQKF
B2: SEQ ID NO: 223 peptide … (peptide)
peptide: KYIPYKYVI
B3: SEQ ID NO: 182 peptide … (peptide)
peptide: IYQLDTASI
B4: SEQ ID NO: 190 peptide … (peptide)
peptide: GFFIFNERF
B5: SEQ ID NO: 189 peptide … (peptide)
peptide: WYVNGVNYF
B6: SEQ ID NO: 175 peptide … (peptide)
peptide: YYEVHKELF
B7: SEQ ID NO: 166 peptide … (peptide)
peptide: YYVESGKLF
B8: SEQ ID NO: 206 peptide … (peptide)
peptide: EYQENFLSF
B9: SEQ ID NO: 219 peptide … (peptide)
peptide: EYPLVINTL
B10: SEQ ID NO: 170 peptide … (peptide)
peptide: VYEDQVGKF
B11: SEQ ID NO: 169 peptide … (peptide)
peptide: AYTLIAPNI
B12: SEQ ID NO: 210 peptide … (peptide)
peptide: IYTMIYRNL
B13: SEQ ID NO: 224 peptide … (peptide)
peptide: QYLENLEKL
B14: SEQ ID NO: 279 peptide … (peptide)
peptide: TYIESASEL
B15: SEQ ID NO: 160 peptide … (peptide)
peptide: VYTLDIPVL
B16: SEQ ID NO: 174 peptide … (peptide)
peptide: VYVGGGQIIHL
B17: SEQ ID NO: 273 peptide … (peptide)
peptide: TYIKPISKL
B18: SEQ ID NO: 164 peptide … (peptide)
peptide: KFSSFSLFF
B19: SEQ ID NO: 289 peptide … (peptide)
peptide: KYPVEWAKF
B20: SEQ ID NO: 185 peptide … (peptide)
peptide: IYKVGAPTI
B21: SEQ ID NO: 187 peptide … (peptide)
peptide: TYLRDQHFL
B22: SEQ ID NO: 186 peptide … (peptide)
peptide: IFPQFLYQF
B23: SEQ ID NO: 211 peptide … (peptide)
peptide: YYLEVGKTLI
B24: SEQ ID NO: 167 peptide … (peptide)
peptide: NYINRILKL
B25: SEQ ID NO: 267 peptide … (peptide)
peptide: KYMVYPQTF
B26: SEQ ID NO: 227 peptide … (peptide)
peptide: IFLDYEAGTLSF
B27: SEQ ID NO: 288 peptide … (peptide)
peptide: VYVSDIQEL
B28: SEQ ID NO: 184 peptide … (peptide)
peptide: VFQNFPLLF
B29: SEQ ID NO: 274 peptide … (peptide)
peptide: AYLHSHALI
B30: SEQ ID NO: 192 peptide … (peptide)
peptide: SYALLTYMI
B31: SEQ ID NO: 208 peptide … (peptide)
peptide: TYTQDFNKF
B32: SEQ ID NO: 275 peptide … (peptide)
peptide: EYINQGDLHEF
B33: SEQ ID NO: 216 peptide … (peptide)
peptide: QYSSVFKSL
B34: SEQ ID NO: 226 peptide … (peptide)
peptide: VYRDETGELF
B35: SEQ ID NO: 180 peptide … (peptide)
peptide: IYDDSFIRPVTF
B36: SEQ ID NO: 163 peptide … (peptide)
peptide: DYLKGLASF
B37: SEQ ID NO: 286 peptide … (peptide)
peptide: RYPDNLKHL
B38: SEQ ID NO: 225 peptide … (peptide)
peptide: YYVYIMNHL
B39: SEQ ID NO: 183 peptide … (peptide)
peptide: VFTSTARAF
B40: SEQ ID NO: 194 peptide … (peptide)
peptide: EFGSLHLEFL
B41: SEQ ID NO: 196 peptide … (peptide)
peptide: LYIDRPLPYL
B42: SEQ ID NO: 168 peptide … (peptide)
peptide: KYQDILETI
B43: SEQ ID NO: 165 peptide … (peptide)
peptide: DYTTWTALL
B44: SEQ ID NO: 283 peptide … (peptide)
peptide: TYGDAGLTYTF
B45: SEQ ID NO: 278 peptide … (peptide)
peptide: RYISDQLFTNF
B46: SEQ ID NO: 217 peptide … (peptide)
peptide: FFPPTRQMGLLF
B47: SEQ ID NO: 161 peptide … (peptide)
peptide: IYLVSIPEL
B48: SEQ ID NO: 188 peptide RYFKGLVF (peptide)
peptide: RYFKGLVF
B49: SEQ ID NO: 173 peptide … (peptide)
peptide: IYSWILDHF
B50: SEQ ID NO: 178 peptide … (peptide)
peptide: IFIEVFSHF
B51: SEQ ID NO: 179 peptide … (peptide)
peptide: MYDSYWRQF
B52: SEQ ID NO: 280 peptide … (peptide)
peptide: RYPDNLKHLYL
B53: SEQ ID NO: 284 peptide … (peptide)
peptide: RYLNKAFHI
B54: SEQ ID NO: 193 peptide … (peptide)
peptide: RFHPTPLLL
B55: SEQ ID NO: 271 peptide … (peptide)
peptide: LYHDIFSRL
B56: SEQ ID NO: 205 peptide … (peptide)
peptide: VHIPEVYLI
B57: SEQ ID NO: 221 peptide … (peptide)
peptide: RYSTGLAGNLL
B58: SEQ ID NO: 159 peptide … (peptide)
peptide: LYNKGFIYL
B59: SEQ ID NO: 176 peptide … (peptide)
peptide: EYNQWFTKL
B60: SEQ ID NO: 272 peptide … (peptide)
peptide: QYLQDAYSF
B61: SEQ ID NO: 158 peptide … (peptide)
peptide: HYSQELSLLYL
B62: SEQ ID NO: 181 peptide … (peptide)
peptide: LYLDIINLF
B63: SEQ ID NO: 171 peptide … (peptide)
peptide: LFIPSSKLLFL
B64: SEQ ID NO: 198 peptide … (peptide)
peptide: LYLDKATLI
B65: SEQ ID NO: 282 peptide … (peptide)
peptide: KFVDSTFYL
B66: SEQ ID NO: 197 peptide … (peptide)
peptide: EYSLFPGQVVI
B67: SEQ ID NO: 214 peptide … (peptide)
peptide: LYLKLWNLI
B68: SEQ ID NO: 177 peptide … (peptide)
peptide: VYPWLGALL
B69: SEQ ID NO: 215 peptide YFDKVVTL (peptide)
peptide: YFDKVVTL
B70: SEQ ID NO: 191 peptide … (peptide)
peptide: VFKASKITF
B71: SEQ ID NO: 195 peptide … (peptide)
peptide: TYSVSFPMF
B72: SEQ ID NO: 276 peptide … (peptide)
peptide: VYGFQWRHF
B73: SEQ ID NO: 162 peptide … (peptide)
peptide: VFTRVSSFL
B74: SEQ ID NO: 228 peptide … (peptide)
peptide: KYTSWYVAL
B75: SEQ ID NO: 172 peptide … (peptide)
peptide: TYTTVPRVAF

Each binder was assayed against HLA-A*24 (human) (assay: UV-ligand exchange, anti-b2m ELISA).
B1 was tested, and the peptide exchange yield was 50 to 75%. For B2, the peptide exchange yield was 50 to 75%. In the case of B3, the peptide exchange yield is reported as 50 to 75%. B4 was tested, and the peptide exchange yield was 50 to 75%. B5 showed a peptide exchange yield of 20 to 49%. Binder B6 has a peptide exchange yield greater than 75%. Binder B7 has a peptide exchange yield greater than 75%. In the case of B8, the peptide exchange yield is reported as 50 to 75%. B9 showed a peptide exchange yield of 50 to 75%. B10 was tested, and the peptide exchange yield was 20 to 49%. Binder B11 has a peptide exchange yield of 50 to 75%. B12 showed a peptide exchange yield greater than 75%. For B13, the peptide exchange yield was 50 to 75%. In the case of B14, the peptide exchange yield is reported as 50 to 75%. B15 was tested, and the peptide exchange yield was greater than 75%. B16 gave a peptide exchange yield of 50 to 75%. For B17, the peptide exchange yield was 50 to 75%. B18 was tested, and the peptide exchange yield was 50 to 75%. Binder B19 has a peptide exchange yield greater than 75%. For B20, the peptide exchange yield was 50 to 75%. B21 gave a peptide exchange yield greater than 75%. Work on B22 yielded a peptide exchange yield greater than 75%. Binder B23 has a peptide exchange yield greater than 75%. For B24, the peptide exchange yield was greater than 75%. In the case of B25, the peptide exchange yield is reported as greater than 75%. Binder B26 has a peptide exchange yield greater than 75%. For B27, the peptide exchange yield was 50 to 75%. B28 was tested, and the peptide exchange yield was greater than 75%. Binder B29 has a peptide exchange yield greater than 75%. B30 showed a peptide exchange yield greater than 75%. With B31 the peptide exchange yield was 50 to 75%. With B32 the peptide exchange yield was 50 to 75%. Work on B33 yielded a peptide exchange yield greater than 75%. B34 showed a peptide exchange yield of 50 to 75%. B35 was tested, and the peptide exchange yield was 50 to 75%. B36 was tested, and the peptide exchange yield was greater than 75%. Binder B37 has a peptide exchange yield of 20 to 49%. With B38 the peptide exchange yield was 50 to 75%. B39 was tested, and the peptide exchange yield was 50 to 75%. B40 showed a peptide exchange yield of less than 20%. With B41 the peptide exchange yield was 50 to 75%. Work on B42 yielded a peptide exchange yield greater than 75%. For B43, the peptide exchange yield was greater than 75%. For B44, the peptide exchange yield was 50 to 75%. In the case of B45, the peptide exchange yield is reported as greater than 75%. B46 gave a peptide exchange yield greater than 75%. In the case of B47, the peptide exchange yield is reported as greater than 75%. B48 gave a peptide exchange yield of 50 to 75%. B49 was tested, and the peptide exchange yield was greater than 75%. For B50, the peptide exchange yield was 50 to 75%. In the case of B51, the peptide exchange yield is reported as greater than 75%. Work on B52 yielded a peptide exchange yield greater than 75%. With B53 the peptide exchange yield was 50 to 75%. B54 gave a peptide exchange yield greater than 75%. B55 gave a peptide exchange yield greater than 75%. B56 was tested, and the peptide exchange yield was 50 to 75%. B57 was tested, and the peptide exchange yield was 50 to 75%. B58 was tested, and the peptide exchange yield was greater than 75%. In the case of B59, the peptide exchange yield is reported as 50 to 75%. B60 gave a peptide exchange yield greater than 75%. In the case of B61, the peptide exchange yield is reported as greater than 75%. Binder B62 has a peptide exchange yield greater than 75%. For B63, the peptide exchange yield was 50 to 75%. With B64 the peptide exchange yield was 50 to 75%. B65 gave a peptide exchange yield greater than 75%. B66 showed a peptide exchange yield of 50 to 75%. B67 gave a peptide exchange yield of 50 to 75%. With B68 the peptide exchange yield was greater than 75%. Work on B69 yielded a peptide exchange yield of 20 to 49%. With B70 the peptide exchange yield was 50 to 75%. Binder B71 has a peptide exchange yield greater than 75%. For B72, the peptide exchange yield was greater than 75%. B73 was tested, and the peptide exchange yield was 50 to 75%. For B74, the peptide exchange yield was greater than 75%. B75 gave a peptide exchange yield greater than 75%.
